Results reported in patent US20100166759A1.

Target: MT2 protein (from Sigma) (UniProt P02795)
Test: SPR (BIAcoreX), MT2 immobilised on CM5 chip, peptide injected

Kd [nM] | koff [s⁻¹] | kon [M⁻¹ s⁻¹] | Binder
367 | 0.00574 | 15700 | KKSSCSCSPVGSAK [MTAn peptide]
160 | 0.000501 | 2830 | SAGSCKCKESKSTS [MTBcc peptide]
89.5 | 0.0004 | 4540 | AQGSICKGASDKSS [MTAcc peptide]
